Results from article doi:10.1101/2025.11.13.687974.
Blank lines part the entries; values can stand above or below the molecule they belong to.

What was measured:
[1] = target: human HP1β chromoshadow domain (CSD) (human); assay: mass photometry
[2] = target: MBP-tagged chromoshadow domain (CSD) of wild-type HPL-2 (Caenorhabditis elegans); assay: mass photometry
[3] = target: biotinylated 12-mer H3K9me3 chromatin arrays (histone octamers with H3K9me3 on 12x200-601 DNA) (Xenopus laevis | not stated); assay: pull-down

- percent dimers [1]: 97%
- stoichiometry N [1]: 2
Molecule: human HP1β chromoshadow domain (CSD) (domain or fragment)

- percent dimers [2]: 67%
- percent monomers [2]: 32%
- stoichiometry N [2]: 2
Molecule: MBP-tagged chromoshadow domain (CSD) of wild-type HPL-2 (domain or fragment)

- fold enrichment on H3K9me3 arrays relative to unmodified arrays [3]: 3 fold
B1: C. elegans HPL-2, wild-type recombinant protein (natural protein)
chain: MSSKSTKRAKIEDPKDNVFMVEKVLDKRTGKAGRDEFLIQWQGFPESDSSWEPRENLQCVEMLDEFEREFSKREKPIRKRHSQKPEPSEDQADPEEDKDEKKETNQNDKFSLEGKQLKCIVGLTKGPGELHFLCKFSDDTARLLPAKEVNSRYPSQVIRYYESKLTIQDPKADEL
